Assay results as given in PMC6774396 (Frontiers in Immunology, 2019).
Numbering of substitutions follows the chain as printed. In names and notes the source's numbering stands.

Columns and labels:
[1] = tested on: ΔM-N L-selectin-GFP/RFP in THP-1 cells; assay: Phos-tag Western blot of L-selectin serine phosphorylation; type: cell-based, human; conditions: 100 nM PMA, 15 min; phos-tag gel
ERM = conditions: biochemically and in cells; cited from earlier work
Description: The cytoplasmic tail of L-s ...

THP-1 cells = assay: Antibody-mediated clustering (AMC) of L-selectin-GFP/RFP, FLIM/FRET; type: cell-based, human; conditions: DREG56 plus secondary antibody
Description: (A) Schematic representation of the cleavage site, transmembrane domain (TMD), and cytoplasmic tail of human L-selectin. Red underlined region of the cleavage site denotes the amino acids that are deleted in ΔM-N L-selectin. […] Red arrow points to the position of the cut site of the L-selectin cleavage domain. (B) Cells expressing matched levels of L-selectin-GFP/RFP in the following forms: WT, ΔM-N, SSAA, ΔM-N^SSAA, and R357A were subjected to AMC using Alexa Fluor 647-conjugated DREG56 or isotype-matched control, followed by goat anti-mouse secondary antibody (see Materials and Methods for more detail). Cells were plated onto poly-L-lysine-coated coverslips and prepared for FLIM/FRET analysis (see materials and methods). FLIM was used to measure the FRET efficiency between the GFP/RFP donor/acceptor pairs as a direct function of cytoplasmic tail clustering […]. At least 45 individual cells were analyzed over 3 independent clustering assays. (C) Representative images are shown for each cell line. The lifetime of fluorescence (Lftm) is expressed in a pseudocolour scale from red (low lifetime with a very high probability of interaction) to blue (high lifetime with a very low probability of interaction). […] Cells were lysed directly in protein loading buffer (containing the reducing agent, dithiothreitol) and resolved onto standard (lower panel) or phos-tag (upper panel) polyacrylamide gels. Antibodies to GFP and RFP were used to, respectively, probe ΔM-N and ΔM-N^SSAA on Western blots. […] Statistics: One-Way ANOVA Tukey's multiple comparison test. **p ≤ 0.01; ***p ≤ 0.001; ****p ≤ 0.0001.
THP-1 cells were adjusted the night before AMC to a density of 0.5 ×10^6 cells per mL. On the same day, 13 mm diameter glass coverslips (thickness “1”) were placed into the base of a 24 well dish, spotted with 100 μL of poly-L-lysine (PLL) to immobilize according to manufacturer's instruction. On the day of the assay, THP-1 cells were counted and adjusted to a density of 1 ×10^6 per mL in 500 μL containing antibody labeling buffer (RPMI culture medium containing FcR block [Miltenyi Biotec]). Cells were labeled with 2 μg per mL DREG56 for 30 min at 4°C, followed by washing (by centrifugation at 300 g and resuspension) in ice cold culture media to remove excess unbound antibody and then incubated back in ice cold labeling buffer containing secondary antibody conjugated to Alexa Fluor […] (Thermo Fisher) for a further 30 min at 4°C. Cells were then washed twice in ice cold neat RPMI and resuspended to 100 μL of neat ice cold RPMI before 80 μL of the cell suspension was seeded onto 13 mm diameter glass coverslips (thickness = “1”), which were pre-coated with PLL-coated the night before. The seeded cells were placed into a humidified cell culture incubator at 37°C and 5% CO2 for 10 min to drive clustering. Adhered cells were flooded in excess 4% paraformaldehyde and fixed for 15 min at room temperature. Fixed coverslips were washed 3 times in PBS and then treated in 10 mg/mL of Sodium Borohydride dissolved in phosphate buffered saline for 10 min at room temperature (to eliminate autofluorescence and enhance signal to noise ratios). Coverslips were subsequently washed in PBS to remove sodium borohydride and mounted using DAKO mounting medium.
FLIM measurement of FRET was performed with a multiphoton microscope system as described previously ([8], [23]). A Nikon TE2000E inverted microscope, combined with an in-house scanner and Chameleon Ti:Sapphire ultrafast pulsed multiphoton laser (Coherent Inc.), was used for excitation of GFP (at 890 nm). Fluorescence lifetime imaging capability was provided by time-correlated, single-photon counting electronics (SPC 700; Becker & Hickl). A 40 × objective (NA 1.3) was used throughout (CFI60 Plan Fluor; Nikon), and data were acquired at 500 ± 20 nm through a bandpass filter (35–5040; Coherent Inc.). […]

calmodulin = conditions: transmigrating pseudopods; ref previously published (no number given at b28; b24 cites ref 8); cited from earlier work
[2] = tested on: THP-1 cells over TNF-α-activated HUVEC; assay: Pseudopod protrusion scoring in TEM under flow; type: cell-based, human
Description: (A) The number of protrusions formed over this period was scored as: zero, one, two, or >2. (B) The percentages of cells bearing these protrusions were scored at specific time points: 6 min (blue bars), 15 min (green bars), or 25 min (red bars). Supplementary Videos 2, 3, 4 provide examples of cells producing a range of protrusions as TEM proceeds. Data represent SEM of 3 fields of view per flow experiment, conducted on three separate occasions, and at least 180 cells analyzed per group. Values of the vertical lines indicate the differences in protrusion number (specifically “zero” and “two”) corresponding to each of the cell lines, for which statistical significance is shown in Table 1.
All flow experiments were performed using a 35 mm diameter Glycotech parallel plate flow chamber. Perfusion experiments were performed at 1.5 dyn/cm^2 using a Harvard Apparatus 2000 PHD syringe pump. Perfusion media consisted of: RPMI supplemented with L-glutamine, 10% FCS, 1% penicillin/streptomycin, 50 μM β-mercaptoethanol, and 25 mM HEPES. Human Umbilical Vein Endothelial Cells (HUVEC–Lonza) were seeded onto 35 mm diameter glass coverslips (no. 1 thickness; VWR) that were pre-coated with 10 μg/mL fibronectin (37°C for at least 1 h). Before each perfusion assay, HUVEC were stimulated overnight (16 h) with 10 ng/mL carrier-free recombinant human TNF-α (R&D Systems). Each perfusion assay was performed by injecting a bolus of cells for 6 min, followed by just perfusion media (without cells) for the […]. THP-1 cells were perfused at a density of 0.5 ×10^6 cells per mL. THP-1 cells treated with 10 μM TAPI-0 required a preincubation time of 10 min at 37°C before perfusion over TNF-α-activated HUVEC. Note that 10 μM TAPI-0 was also supplemented in the perfusate. Stills were acquired once every 10 seconds using 10 × objective lens.

CCCCCCCCCCCCCC(=O)O[C@@H]1[C@@H](C)[C@@]2(O)[C@@H](C=C(CO)C[C@]3(O)C(=O)C(C)=C[C@@H]23)[C@@H]2C(C)(C)[C@]12OC(C)=O [PMA, phorbol myristate acetate]
serine phosphorylation of L-selectin [1]: serine phosphorylation was detected only when cells were robustly stimulated with the phorbol ester, PMA

B1: R357A: ERM-binding mutant of L-selectin, arginine 357 mutated to alanine (protein)
chain: WTYHYSEKPMNWQRARRFCRDNYTDLVAIQNKAEIEYLEKTLPFSRSYYWIGIRKIGGIWTWVGTNKSLTEEAENWGDGEPNNKKNKEDCVEIYIKRNKDAGKWNDDACHKLKAALCYTASCQPWSCSGHGECVEIINNYTCNCDVGYYGPQCQFVIQCEPLEAPELGTMDCTHPLGNFSFSSQCAFSCSEGTNLTGIEETTCGPFGNWSSPEPTCQVIQCEPLSAPDLGIMNCSHPLASFSFTSACTFICSEGTELIGKKKTICESSGIWSNPSPICQKLDKSFSMIKEGDYNPLFIPVAVMVTAFSGLAFIIWLARALKKGKKSKRSMNDPY
modifications: left off: eGFP (donor copy) or mCherry (acceptor copy, called RFP), C-terminal, kept
L-selectin/ERM interaction (ERM): block L-selectin/ERM interaction
change in FRET efficiency on AMC or versus comparator (in words) (THP-1 cells): lacked any significant increase in FRET efficiency
FRET efficiency after AMC (THP-1 cells; 10 min at 37°C, GFP/RFP pair, at least 45 cells, 3 independent assays): 2.47%

B2: S367A: L-selectin with Ser^367 mutated to alanine, GFP-tagged, expressed in THP-1 cells (protein, UniProt P14151 39-372, looked up, variant S367A)
L-selectin: B1 chain with A319R, S329A
modifications: C-terminal GFP tag
interaction of calmodulin with L-selectin (calmodulin): significantly reduced interaction of calmodulin
protrusive activity profile in TEM (in words) ([2]; 6, 15 and 25 min of flow over TNF-α-activated HUVEC): possessed the fewest protrusions over the recorded period, differing significantly from WT and S364A L-selectin-expressing cell lines
cells with 2 protrusions ([2]; 15 min time point, mean of 3 fields of view per flow experiment, three occasions, at least 180 cells per group, significance ** S367A p ≤ 0.01 (Tukey), % printed): 13.7%
cells with 0 protrusions ([2]; 15 min time point, mean of 3 fields of view per flow experiment, three occasions, at least 180 cells per group, significance *** S367A p ≤ 0.001, ** SSAA p ≤ 0.01 (Tukey), % printed): 34.4%
